Data as given in a protein production outcome set (Wang et al. 2014).

Assay: label from the status in PepcDB records

**Q.** With “MSFAIEALGQGRFDEVEILCREILKEVPDHFHATHLLGLRAFDGGWLEDAQFLLERAVALDPRSPDAHGNLGAVYFALERFKDARACQEKAIALKPNCPITLTNLGNTLLHLGLAKEAIELHERAIRLKPNYADAFCNRGMAELMIGQFERAGVDFDRALSFQPRHAEAIAGKAMVSLELRHFEAAEAAFEASLALKPGSPRILVQRGRLHLTLYRLEQAAADFDAALAQSPRNELALCWRAQVDIMVRNTAGAMAGVKTLLEVNPQSEAGMSLLASCHANQGDIATALEYLDAALAIAPDFPEAIGYKIFVLDYLPEADFVVQQAARKYWWDQIGAKLPQRTLSPRDLDPDRRIVIGYVASEFRQHSAAYTLLPVMRHHDHAKFKIVCYSCWPLQDGMTEKFKACADVWVEAAQFSDDELADRIQADGIDILIDVSGHTTGSRLHVFSRKPAPIQVTGFGHATGTGLQTMDYVLADPIFIPQSARHLLAEKVYDLPSLITIDPIQDVPPSELPMLRNGYVTFGVFNRILKISDEAIRVWSKVMREVAGSKIIIKNGLLDDPMLRDGLIARFVAQGIAEENVICMGSTSRREHLRAFANVDISLDTFPQNGGISTWESLYAGVPVVAKLGNGSSSRAGGSIVAAVGLGDWVADDDEGYAAIACKFAAQPAHLAKLRADLPAQIANSPAGNVEIYTREVEAGYRQFWRDYCAEASETCDVA” as the sequence, how does the protein production read?
**A.** The protein production was “failed”.

**Q.** For “MSFDPIYFLTPIIVMVFSFGMVYKLVKSIKVLMFSALAYFIAIVLKVLVQFFTLGYLASINSLAVLGLYYGLQTSIFEVGLAYVFALLGKLKNGWGYGVSLAMWENGVLISIPTLFIYIAYYFFPLILSTPSQLEYPITQALPLIGLSILERVSSLLIHSSWGYLSVLSVITGRKRLILVAFPMGFVDFLVPFEKYLGILTFEFIFFCIGLICLVMAWSLGKYYRSTSSKDT”, which protein production is on record?
**A.** The protein production was “failed”.

**Q.** For “MSFDRNLCKVLVADDSRLVTSSVTAILRQLDLSDIYYAYKPFEVINLCKQMHFDLVICDYNFQTQLNGFQLLEELKHAQILPAHTTFVFLTGENDHKIVRSIVDCDPDDYLLKPFNHTFFRNRLLSAMKRRSVLLPIYEKLREMDFEGVIEATDTLLPFHPEYSKLIRRYRAHAMVQNKQFSSARSEYEKLLKEDNFDWIKTALANTLIETDNLEKAQEVLESLSSKKENPYYHDEMSNMAVLSEDIPKAIKHLKQSTMLLDAGSERELVITNLSLASESYDDAVTYIKRYYEKNENTFRGGIFTKLNFVRCHLYRSLNAPSNQCFENLLFGLNPLIGEIEKNSQFKAQFALIDAHIALIRGDLKAAISQVRAVLASNQLSHFYDLYHLCVLLERCSFLSEMKSMLPRARRAIAEAQHPSIFRSQVHMLKSLEMRLQESQTKIEQIRRQITAQKSISTSAITPHFDRYFQLHDLLPHSKKICLAIVRLASLRPFEYRGEYAIYRKLEHCDRVIRNLCDNRELQSIKYNNMYQYAKQNITVSNG”, which protein production is on record?
**A.** The protein production was “failed”.

**Q.** Which protein production does the source give for “MSFLKPKTHIEKGDVVILYLSVSSMHAIEAVPEIVNKKGETIPHIFQTNYGSLKVENIIGVEYGSKVELSKGWAHVLQPTPELWTQTLPHRTQIIYTPDISMIIHQLEVRPGAVVVESGTGSGSLSHYFLRALKPTGHLHTFDFHEARADQARDEFRRHGIADFVTVYHRDVCNLGFGAELDGKADAVFLDLPAPDLAVPHAFKALKLSGGRFCSFSPCIEQSQRCIQELTKLGFNEIVSLEVLQQENVVKTRTLPVIDLEFLKLPKTDETTAATNALESKAPKEVKKYLTSSNPQTLPGHTGFLTFATLPPNIPKA” here?
**A.** Its protein production is “failed”.

**Q.** With “MSFRTGERRIWDATATLEALGAADVALWIWEPETDRLRLNGAARALGLGPLAPECSSAAFRALALPQDRAQAEEVLKPREPGSEVVARFRVRGGETCLWRGVWLEEGVRAAGVVAPETKFSASELCDLTGLLDRRSFLARARERLAQEGTHQLVVADLDRLRRLNEALGHERADLVLAALGSRLAAAFPAQSILGRIGEDEFAVLCQPLGYEPSDVLRSALEQPLRVAGFDIHPTLSIGAVSAEGGLDAPDAAELLRRAELAVEAAAAAGRGGAAAYGRAMETDGLSRLALEADLRGAIGRGEITPYFQPIVRLSTGALSGFEALARWIHPRRGMLPPDEFLPLIEEMGLMSELGAHMMHAAAQQLSTWRAAHPAMGNLTVSVNLSTGEIDRPGLVADVAETLRVNRLPRGALKLEVTESDIMRDPERAAVILKTLRDAGAGLALDDFGTGFSSLSYLTRLPFDTLKIDRYFVRTMGNNAGSAKIVRSVVKLGQDLDLEVVAEGVENAEMAHALQSLGCDYGQGFGYAPALSPQEAEVYLNEAYVDGAAPVKARG” as the sequence, how does the protein production read?
**A.** The protein production was “failed”.

**Q.** Which protein production does the source give for “MSFSADALEGGLSSLKLAADKYRSILNDEKTGNIRWRYGGPPIFDTVNKLFEEERTHVQWRYDNPPDFNSVNQLFEEGQTKVWPEGSLEETVQNAIKSWEMEFSHKIRLQDFKTINPEKFKLFVNGREGLSAEETLRLGSYNALLKNSLPEEFQYYKPEEESFESSHDAFRSALPRGFAWEILSVYSGPPVIAFKFRHWGYFEGTFKGHAPTGEMVQFLGLGVLKVDESLRAEEIEIYYDPGELFGGLLKGPPISETKTTDSGDNTAEKQSCPFTH” here?
**A.** Its protein production is “failed”.

**Q.** For “MSFSDSESSSHGGGGGDYKFFRQISRDRLLHEMLGSTKTGDSKAWKILIMDRVTVKVMSQSCKMADITDQGISLVEELFKRREPMPGMDAIYFIQPSKENIVMFLSDMSGREPLYRKAFIFFSSTIPKELVNHIKSDSSVLPRIGALREMNMEYFPIDNQGFLTDHEQALETLYAEDAENSRHFHICLNIMATRIATVFASLKELPFVRYRAAKSTASRDLVPSKLAAAIWDCISKYKAIPNFPQTETCELLIVDRSVDQVLRLIYYIYSSSPY”, which protein production is on record?
**A.** Its protein production is “failed”.

**Q.** For “MSFSLWLLVLGCILLTLGLASAYLRLLPVSTSFIYLLFGLAIGPAGLHAWRSGLADISGWFEHLSEAALLISLFIGGLKLRLPLRSPAWTAAWLLAGPVLLGCILGLTLGAHFLFGLDWGLALLVAAILAPTDPVLASDIQVNHAGDDDRLRYAVSGEAGLNDGIAFPFVIAALLLIGQGGGLPGEFDRSGLDWLLRDVLWAIPLGLLVGYCLGHGLGRLAIHLRARHTDTSVSANDFLALALIALSYVGADALGGWGFLASFAAGIGLRHAEVATLGRASAPAEAQAAAADVREAGQASGAIEYGADRSEHPKVAAGAVMLDVLSFGNLLERSLEVLLVTLLGAMLYQHWDWRALPLALLLFCVCRPAMVWLLVGRRLMHPAQRRLLGWFGIRGIGSLYYLSYALNQGLPTALAHTASDLVLSLVALSICVHGLSIQPLLMRHARSVSRRDRE”, which protein production is on record?
**A.** The protein production was “failed”.

**Q.** For “MSFVAGVIRRLDETVVNRIAAGEVIQRPANAIKEMIENCLDAKSTSIQVIVKEGGLKLIQIQDNGTGIRKEDLDIVCERFTTSKLQSFEDLASISTYGFRGEALASISHVAHVTITTKTADGKCAYRASYSDGKLKAPPKPCAGNQGTQITVEDLFYNIATRRKALKNPSEEYGKILEVVGRYSVHNAGISFSVKKQGETVADVRTLPNASTVDNIRSIFGNAVSRELIEIGCEDKTLAFKMNGYISNANYSVKKCIFLLFINHRLVESTSLRKAIETVYAAYLPKNTHPFLYLSLEISPQNVDVNVHPTKHEVHFLHEESILERVQQHIESKLLGSNSSRMYFTQTLLPGLAGPSGEMVK”, which protein production is on record?
**A.** Its protein production is “failed”.

**Q.** With “MSGAGKKIADVAFKASRTIDWDGMAKVLVTDEARREFSNLRRAFDEVNTQLQTKFSQEPEPIDWDYYRKGIGAGIVDKYKEAYDSIEIPKYVDKVTPEYKPKFDALLVELKEAEQKSLKESERLEKEIADVQEISKKLSTMTADEYFEKHPELKKKFDDEIRNDNWGY” as the sequence, how does the protein production read?
**A.** The protein production was “failed”.

**Q.** Which protein production does the source give for “MSGDEAVAAPVVPPVAEAAVIPEDMDVSTALELTVRKSRAYGGVVRGLHESAKLIEKRNAQLCVLAEDCNQPDYVKLVKALCADHSIKLLTVPSAKTLGEWAGLCKIDSEGNARKVVGCSCLVIKDFGEETTALNIVKKHLDSN” here?
**A.** The protein production was “failed”.

**Q.** With “MSGDFDTIRDASSPDEVQLVRLLEEKIKSLQIEIENLRKELNYYKAEMEKMLSPPLIEAVVLDVLPDGRVLVRSSSGPNLVVNIASHIDQKLIKPGISVALNQRGSTILEVLPQKE” as the sequence, how does the protein production read?
**A.** Its protein production is “not failed”.

**Q.** With “MSGGQQERHVLILNTVGGRRAIALEAAAYSLGRDESNAIVIDFETVSRQHAILLRVPVPGTTSYRYRLVDGNANGKPSTNGTFVNGKRISSHELQHGDVILFGRKAKASYLLLSMADTEFSQYLQSIAFQSIKSDLRGAKETLVGMELSGELRRTPNRELEHHHHHH” as the sequence, how does the protein production read?
**A.** Its protein production is “not failed”.

**Q.** With “MSGKNEADSKDTGWEQIKDKGKIVVATSGTLYPTSYHDTDSGSDKLTGYEVEVVREAAKRLGLKVEFKEMGIDGMLTAVNSGQVDAAANDIDVTKDREEKFAFSTPYKYSYGTAIVRKDDLSGIKTLKDLKGKKAAGAATTVYMEVARKYGAKEVIYDNATNEQYLKDVANGRTDVILNDYYLQTLALAAFPDLNITIHPDIKYMPNKQALVMKKSNAALQKKMNEALKEMSKDGSLTKLSKQFFNKADVSKKIDADVQDVDLLEHHHHHH” as the sequence, how does the protein production read?
**A.** The protein production was “not failed”.

**Q.** For “MSGKSSPLSVLEYLAIFAIIMTWGINNAAAKVATAYLPPMTVGGLRFLAALVFLFPFIRPPFPEPKKLAAIVLLTGPIHFGLVYVGFGMGQSLSPLVVASQLWIPFTALVAWKLLGETMRLPAVLGLIVAFVGVAWMTLDPHTSGDLPAIVLIVLASACWAVATILVRMTPGAKPLKVQAVTALFAAPSLLAMSFAFETQVVERVMTAPPIAWACVIFAGVVSTIGASALLFWLVQRREAGRVTPYFLLTPLVSCTLGVAFLGDKLTPQLLIGGAATMVGVALVAMTEKRARAEEALAETA”, which protein production is on record?
**A.** The protein production was “failed”.

**Q.** With “MSGLDATIINTAIPAIVSDLHGIQYMGWIVACFLLGMSVSVPIWSKLGERMGNKFAFELSLVLFILGSVLEGVAPDIYFFLISRVLMGVGAGGMGSLPYVIVGFIYPNIKRRTVILSYIAASFSAACIAGPLVGGWIVDALSWHWVFYINVPLGLISIILSIAFYRDAHKSKEKVQFDKMGAFTLIAGLTCFLIGIQMLGLASNVMVALFVIVGIILLISFIFIEKKAKSPIVPLSVFLNKALVGDFVLFALAWGAYIAVNTYLPMWSQAILGTSALIGGMTLIPNSILDIAGSQTAPYFLRRFSNYHLLIVDFTLIAITILGLILVPLNTSYWILMLIAAFSGLGVGSIFVILQIKVQIDASEKDMAPATSLSFLIRILAQTIMAAIYGVIMNLALARGIAGHRGITMTMMNKLSDAESAKSLPTAMLPTMRTIFHSGIIEIMCVALFLVVCAYVINFIYNRKEAKKVAE” as the sequence, how does the protein production read?
**A.** Its protein production is “failed”.

**Q.** Which protein production does the source give for “MSGLLSIFDLSDERGVLRTSIAVTFVISFLGIGFGLFSGSFSIVFDGVYSLIDAGMSLLSLIVVNLITSYAVADHLSRKLRERFSFGLWHLEPMVLGLNGILLISAALYALVTAIGSLLSGGRDLEFGSALIYAAVTVIACAGIAAVEWRANRKIGSEFLRLDVRGWIMSAGISAALLIAFMIGLAVQGTSWQWISPYIDPAVLAAVCVLIIPLPVSTVRQALADIFLVTPVDLKKHLDTVAAAFVAKHGFVSYRAYVARVGRSKEIELYFIVPADAPARTIGEWDMLRDEIGDLVGDDGPNRWLTVVFTGDPEWAE” here?
**A.** The protein production was “failed”.

**Q.** For “MSGRYEIRFSGAGGQGLILAGVIMAEAASIYDGKQAVQSQSYGPEARGGASKSEVIISDGPVDYPKATQCDALLALTQEACDKYSADLKEGGVLLVDSDLVTKLPPGNYQTTAFNIINTAKNDVGREIVANIVALGAMVALTGVVSKEAAEKAVLSRVPEAFVELNRKAFQMGFEKALAAKK”, which protein production is on record?
**A.** Its protein production is “failed”.

**Q.** Which protein production does the source give for “MSGSLLLLFVFLSAFLAPPLSRLLRMPVPVGELVIGLLLGHFLAQGVALPEILGFLADFGFLLLMFLAGLEVDFNLLRQLERRHFVFYALYVVGMFLGAGLLAGLLGVGLAQALILALVSIGLMVATLRDMGILGRAFAKRVLILGVLGEVASLFGLTAMEKAAHYQGLLSLLKEVGIIALFFLLLFLAFRLAGLFLWWYPEVGRRLVYEEDPSAMGIRLSLALMFAAAVMSGLVGLESVLGAFLAGMILSYFLQKKHDLEAKLSAMGYGFLIPIFFIRTGMGIDLSGLDGRLLLEVGQALLLMLLIRLLPAPFLLLGGFRLREAFLAALLLAYPFTLMIAGTEIARSAHLLDERAALVLLLAAALSSLLFPWTAKMLLRFLR” here?
**A.** The protein production was “failed”.
